Test results reported in publication PMC6255812, “Structural basis for activation of plasma-membrane Ca^2+-ATPase by calmodulin” (Communications Biology, 2018).

T1: ACA8core (core of ACA8, residues 131-1074, construct lacking the regulatory domain) (UniProt Q9LF79 131-1074)
T1 construct: Embedded in MSP1D1/POPC nanodiscs in the assay; also called core enzyme; ACA8 mutant lacking the regulatory domain
T1 sequence (looked up): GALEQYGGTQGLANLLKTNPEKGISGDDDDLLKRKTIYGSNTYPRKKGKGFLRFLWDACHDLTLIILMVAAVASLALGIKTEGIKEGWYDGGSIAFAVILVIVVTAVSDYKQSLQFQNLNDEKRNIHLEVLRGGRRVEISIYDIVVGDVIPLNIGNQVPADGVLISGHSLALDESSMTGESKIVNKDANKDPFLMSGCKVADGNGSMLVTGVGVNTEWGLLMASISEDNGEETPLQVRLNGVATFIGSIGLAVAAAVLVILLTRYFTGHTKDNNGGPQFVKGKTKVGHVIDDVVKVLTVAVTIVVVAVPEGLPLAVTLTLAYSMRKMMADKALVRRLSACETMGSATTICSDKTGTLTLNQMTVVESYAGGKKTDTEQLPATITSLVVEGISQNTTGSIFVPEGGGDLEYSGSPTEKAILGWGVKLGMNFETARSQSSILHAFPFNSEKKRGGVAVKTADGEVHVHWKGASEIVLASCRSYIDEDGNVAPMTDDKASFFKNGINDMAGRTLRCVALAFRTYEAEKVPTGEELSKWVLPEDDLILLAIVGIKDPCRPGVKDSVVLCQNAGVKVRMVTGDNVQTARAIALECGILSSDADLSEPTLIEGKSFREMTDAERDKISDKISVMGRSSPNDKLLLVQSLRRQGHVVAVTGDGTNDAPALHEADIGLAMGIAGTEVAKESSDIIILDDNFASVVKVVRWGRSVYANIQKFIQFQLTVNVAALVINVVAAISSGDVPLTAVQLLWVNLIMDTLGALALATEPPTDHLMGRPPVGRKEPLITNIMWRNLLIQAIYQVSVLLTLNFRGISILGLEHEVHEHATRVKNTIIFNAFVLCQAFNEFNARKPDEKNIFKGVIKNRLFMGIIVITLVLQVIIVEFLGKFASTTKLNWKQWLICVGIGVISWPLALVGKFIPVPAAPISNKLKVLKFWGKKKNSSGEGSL


How the values were obtained:
[1] = molecular target: T2, fluorescein-labeled CaM (CaM7 from A. thaliana) (A. thaliana, UniProt P59220 1-149, Alexa Fluor 488 C5 maleimide label (the paper also calls it fluorescein-labeled and FITC-labeled); site not stated); experiment: fluorescence polarisation; fluorescence anisotropy; full-length ACA8 in POPC nanodiscs titrated into 15 nM labelled CaM; 20 °C; 30 mM Tris pH 8.0, 150 mM NaCl, 2 mM CaCl2, 0.5 mM TCEP; one-site model; apparent; conditions: both partners purified
T2 construct: calmodulin 7 (CaM7), A. thaliana; Same protein as m2 with a thiol-reactive fluorophore; also called FITC-labeled CaM; source: E. coli BL21 Gold (DE3), purified (HiTrap Phenyl HP), labelled, PD10 column

[2] = molecular target: T1, ACA8core (core of ACA8, residues …); experiment: fluorescence polarisation; fluorescence anisotropy; 25 µM ACA8core in POPC nanodiscs titrated into 50 nM labelled ACA8RD; 20 °C; 30 mM Tris pH 8.0, 150 mM NaCl, 2 mM CaCl2, 0.5 mM TCEP; one-site model; conditions: both partners purified

| Kd [1] [nM] | Kd [2] [nM] | Binder |
| --- | --- | --- |
| 18 |  | full-length ACA8 (plasma-membrane Ca2+-ATPase ACA8) (enzyme, Integral membrane protein; in most experiments embedded in MSP1D1 nanodiscs (POPC, POPC/POPG, POPC/soy-PI or deuterated stealth nanodiscs); The nanodisc belt protein is a carrier and not a partner; also called apo-ACA8; ACA8-ND; source: used DDM-solubilised or reconstituted in MSP1D1 nanodiscs (Superdex200)) MTSLLKSSPGRRRGGDVESGKSEHADSDSDTFYIPSKNASIERLQQWRKAALVLNASRRFRYTLDLKKEQETREMRQKIRSHAHALLAANRFMDMGRESGVEKTTGPATPAGDFGITPEQLVIMSKDHNSGALEQYGGTQGLANLLKTNPEKGISGDDDDLLKRKTIYGSNTYPRKKGKGFLRFLWDACHDLTLIILMVAAVASLALGIKTEGIKEGWYDGGSIAFAVILVIVVTAVSDYKQSLQFQNLNDEKRNIHLEVLRGGRRVEISIYDIVVGDVIPLNIGNQVPADGVLISGHSLALDESSMTGESKIVNKDANKDPFLMSGCKVADGNGSMLVTGVGVNTEWGLLMASISEDNGEETPLQVRLNGVATFIGSIGLAVAAAVLVILLTRYFTGHTKDNNGGPQFVKGKTKVGHVIDDVVKVLTVAVTIVVVAVPEGLPLAVTLTLAYSMRKMMADKALVRRLSACETMGSATTICSDKTGTLTLNQMTVVESYAGGKKTDTEQLPATITSLVVEGISQNTTGSIFVPEGGGDLEYSGSPTEKAILGWGVKLGMNFETARSQSSILHAFPFNSEKKRGGVAVKTADGEVHVHWKGASEIVLASCRSYIDEDGNVAPMTDDKASFFKNGINDMAGRTLRCVALAFRTYEAEKVPTGEELSKWVLPEDDLILLAIVGIKDPCRPGVKDSVVLCQNAGVKVRMVTGDNVQTARAIALECGILSSDADLSEPTLIEGKSFREMTDAERDKISDKISVMGRSSPNDKLLLVQSLRRQGHVVAVTGDGTNDAPALHEADIGLAMGIAGTEVAKESSDIIILDDNFASVVKVVRWGRSVYANIQKFIQFQLTVNVAALVINVVAAISSGDVPLTAVQLLWVNLIMDTLGALALATEPPTDHLMGRPPVGRKEPLITNIMWRNLLIQAIYQVSVLLTLNFRGISILGLEHEVHEHATRVKNTIIFNAFVLCQAFNEFNARKPDEKNIFKGVIKNRLFMGIIVITLVLQVIIVEFLGKFASTTKLNWKQWLICVGIGVISWPLALVGKFIPVPAAPISNKLKVLKFWGKKKNSSGEGSL |
|  | 1700 | fluorescein-labeled regulatory domain of ACA8 (ACA8RD, residues 1-130) (domain or fragment, Alexa Fluor 488 C5 maleimide (the paper also calls it fluorescein) for labelling of the introduced cysteine, a cysteine introduced right before the first residue of the regulatory domain, for site specific labeling with thiol-reactive probes; ACA8 regulatory domain, residues 1-130; also called labeled RD; not shown: His6, N-terminal, cleaved; lipoamyl domain, N-terminal, cleaved) CMTSLLKSSPGRRRGGDVESGKSEHADSDSDTFYIPSKNASIERLQQWRKAALVLNASRRFRYTLDLKKEQETREMRQKIRSHAHALLAANRFMDMGRESGVEKTTGPATPAGDFGITPEQLVIMSKDHNS |
